Source: patent US20100015650

Target: T1, BRB1 tyrosine kinase substrate peptide
T1 chain: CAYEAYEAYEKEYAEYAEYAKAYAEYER

B1: EphA2 (protein)
chain: HRRRKNQRARQSPEDVYFSKSEQLKPLKTYVDPHTYEDPNQAVLKFTTEIHPSCVTRQKVIGAGEFGEVYKGMLKTSSGKKEVPVAIKTLKAGYTEKQRVDFLGEAGIMGQFSHHNIIRLEGVISKYKPMMIITEYMENGALDKFLREKDGEFSVLQLVGMLRGIAAGMKYLANMNYVHRDLAARNILVNSNLVCKVSDFGLSRVLEDDPEATYTTSGGKIPIRWTAPEAISYRKFTSASDVWSFGIVMWEVMTYGERPYWELSNHEVMKAINDGFRLPTPMDCPSAIYQLMMQCWQQERARRPKFADIVSILDKLIRAPDSLKTLADFDPRVSIRLPSTSGSEGVPFRTVSEWLESIKMQQYTEHFMAAGYTAIEKVVQMTNDDIKRIGVRLPGHQKRIAYSLLGLKDQVNTVGIPI
B1 showed a Signal to Noise ratio with BRB1 Peptide (TR-FRET kinase assay; kinase 0.25 nM) of 26.9.

B2: EphB2 (protein)
chain: CNRRGFERADSEYTDKLQHYTSGHMTPGMKIYIDPFTYEDPNEAVREFAKEIDISCVKIEQVIGAGEFGEVCSGHLKLPGKREIFVAIKTLKSGYTEKQRRDFLSEASIMGQFDHPNVIHLEGVVTKSTPVMIITEFMENGSLDSFLRQNDGQFTVIQLVGMLRGIAAGMKYLADMNYVHRDLAARNILVNSNLVCKVSDFGLSRFLEDDTSDPTYTSALGGKIPIRWTAPEAIQYRKFTSASDVWSYGIVMWEVMSYGERPYWDMTNQDVINAIEQDYRLPPPMDCPSALHQLMLDCWQKDRNHRPKFGQIVNTLDKMIRNPNSLKAMAPLSSGINLPLLDRTIPDYTSFNTVDEWLEAIKMGQYKESFANAGFTSFDVVSQMMMEDILRVGVTLAGHQKKILNSIQVMRAQMNQIQSVEG
B2 was tested, and the Signal to Noise ratio with BRB1 Peptide (TR-FRET kinase assay; kinase 0.25 nM) was 28.8.

B3: ACK (protein)
chain: GEGPLQSLTCLIGEKDLRLLEKLGDGSFGVVRRGEWDAPSGKTVSVAVKCLKPDVLSQPEAMDDFIREVNAMHSLDHRNLIRLYGVVLTPPMKMVTELAPLGSLLDRLRKHQGHFLLGTLSRYAVQVAEGMGYLESKRFIHRDLAARNLLLATRDLVKIGDFGLMRALPQNDDHYVMQEHRKVPFAWCAPESLKTRTFSHASDTWMFGVTLWEMFTYGQEPWIGLNGSQILHKIDKEGERLPRPEDCPQDIYNVMVQCWAHKPEDRPTFVALRDFLLEAQPTDMRALQDFEEPDKLHIQMNDVITVIEGRAENYWWRGQNTRTLCVGPFPRNVVTSVAGLSAQDISQPLQNSFIHTGHGDSDPRHCW
Protein B3 has a Signal to Noise Ratio with BRB1 Peptide (TR-FRET kinase assay; kinase 20 nM) of 17.3.

B4: EphA5 (protein)
chain: SGSCCECGCGRASSLCAVAHPSLIWRCGYSKAKQDPEEEKMHFHNGHIKLPGVRTYIDPHTYEDPNQAVHEFAKEIEASCITIERVIGAGEFGEVCSGRLKLPGKRELPVAIKTLKVGYTEKQRRDFLGEASIMGQFDHPNIIHLEGVVTKSKPVMIVTEYMENGSLDTFLKKNDGQFTVIQLVGMLRGISAGMKYLSDMGYVHRDLAARNILINSNLVCKVSDFGLSRVLEDDPEAAYTTRGGKIPIRWTAPEAIAFRKFTSASDVWSYGIVMWEVVSYGERPYWEMTNQDVIKAVEEGYRLPSPMDCPAALYQLMLDCWQKERNSRPKFDEIVNMLDKLIRNPSSLKTLVNASCRVSNLLAEHSPLGSGAYRSVGEWLEAIKMGRYTEIFMENGYSSMDAVAQVTLEDLRRLGVTLVGHQKKIMNSLQEMKVQLVNGMVPL
B4 was tested, and the Signal to Noise Ratio with BRB1 Peptide (TR-FRET kinase assay; kinase 1 nM) was 35.5.

B5: EphA8 (protein)
chain: KKRHCGYSKAFQDSDEEKMHYQNGQAPPPVFLPLHHPPGKLPEPQFYAEPHTYEEPGRAGRSFTREIEASRIHIEKIIGSGDSGEVCYGRLRVPGQRDVPVAIKALKAGYTERQRRDFLSEASIMGQFDHPNIIRLEGVVTRGRLAMIVTEYMENGSLDTFLRTHDGQFTIMQLVGMLRGVGAGMRYLSDLGYVHRDLAARNVLVDSNLVCKVSDFGLSRVLEDDPDAAYTTTGGKIPIRWTAPEAIAFRTFSSASDVWSFGVVMWEVLAYGERPYWNMTNRDVISSVEEGYRLPAPMGCPHALHQLMLDCWHKDRAQRPRFSQIVSVLDALIRSPESLRATATVSRCPPPAFVRSCFDLRGGSGGGGGLTVGDWLDSIRMGRYRDHFAAGGYSSLGMVLRMNAQDVRALGITLMGHQKKILGSIQTMRAQLTSTQGPRRHL
In the case of B5, the Signal to Noise ratio with BRB1 Peptide (TR-FRET kinase assay; kinase 0.25 nM) is reported as 32.3.

B6: ARG (protein)
chain: GQQVGRVGEAPGLQQPQPRGIRGSSAARPSGRRRDPAGRTTETGFNIFTQHDHFASCVEDGFEGDKTGGSSPEALHRPYGCDVEPQALNEAIRWSSKENLLGATESDPNLFVALYDFVASGDNTLSITKGEKLRVLGYNQNGEWSEVRSKNGQGWVPSNYITPVNSLEKHSWYHGPVSRSAAEYLLSSLINGSFLVRESESSPGQLSISLRYEGRVYHYRINTTADGKVYVTAESRFSTLAELVHHHSTVADGLVTTLHYPAPKCNKPTVYGVSPIHDKWEMERTDITMKHKLGGGQYGEVYVGVWKKYSLTVAVKTLKEDTMEVEEFLKEAAVMKEIKHPNLVQLLGVCTLEPPFYIVTEYMPYGNLLDYLRECNREEVTAVVLLYMATQISSAMEYLEKKNFIHRDLAARNCLVGENHVVKVADFGLSRLMTGDTYTAHAGAKFPIKWTAPESLAYNTFSIKSDVWAFGVLLWEIATYGMSPYPGIDLSQVYDLLEKGYRMEQPEGCPPKVYELMRACWKWSPADRPSFAETHQAFETMFHDSSISEEVAEELGRAASSSSVVPYLPRLPILPSKTRTLKKQVENKENIEGAQDATENSASSLAPGFIRGAQASSGSPALPRKQRDKSPSSLLEDAKETCFTRDRKGGFFSSFMKKRNAPTPPKRSSSFREMENQPHKKYELTGNFSSVASLQHADGFSFTPAQQEANLVPPKCYGGSFAQRNLCNDDGGGGGGSGTAGGGWSGITGFFTPRLIKKTLGLRAGKPTASDDTSKPFPRSNSTSSMSSGLPEQDRMAMTLPRNCQRSKLQLERTVSTSSQPEENVDRANDMLPKKSEESAAPSRERPKAKLLPRGATALPLRTPSGDLAITEKDPPGVGVAGVAAAPKGKEKNGGARLGMAGVPEDGEQPGWPSPAKAAPVLPTTHNHKVPVLISPTLKHTPADVQLIGTDSQGNKFKLLSEHQVTSSGDKDRPRRVKPKCAPPPPPVMRLLQHPSICSDPTEEPTALTAGQSTSETQEGGKKAALGAVPISGKAGRPVMPPPQVPLPTSSISPAKMANGTAGTKVALRKTKQAAEKISADKISKEALLECADLLSSALTEPVPNSQLVDTGHQLLDYCSGYVDCIPQTRNKFAFREAVSKLELSLQELQVSSAAAGVPGTNPVLNNLLSCVQEISDVVQR
In the case of B6, the Signal to Noise ratio with BRB1 Peptide (TR-FRET kinase assay; kinase 0.5 nM) is reported as 10.6.

B7: EphA3 (protein)
chain: RFCGYKSKHGADEKRLHFGNGHLKLPGLRTYVDPHTYEDPTQAVHEFAKELDATNISIDKVVGAGEFGEVCSGRLKLPSKKEISVAIKTLKVGYTEKQRRDFLGEASIMGQFDHPNIIRLEGVVTKSKPVMIVTEYMENGSLDSFLRKHDAQFTVIQLVGMLRGIASGMKYLSDMGYVHRDLAARNILINSNLVCKVSDFGLSRVLEDDPEAAYTTRGGKIPIRWTSPEAIAYRKFTSASDVWSYGIVLWEVMSYGERPYWEMSNQDVIKAVDEGYRLPPPMDCPAALYQLMLDCWQKDRNNRPKFEQIVSILDKLIRNPGSLKIITSAAARPSNLLLDQSNVDITTFRTTGDWLNGVWTAHCKEIFTGVEYSSCDTIAKISTDDMKKVGVTVVGPQKKIISSIKALETQSKNGPVPV
B7 showed a Signal to Noise ratio with BRB1 Peptide (TR-FRET kinase assay; kinase 0.5 nM) of 22.4.

B8: EphA6 (protein)
chain: TGRCQWYIKAKMKSEEKRRNHLQNGHLRFPGIKTYIDPDTYEDPSLAVHEFAKEIDPSRIRIERVIGAGEFGEVCSGRLKTPGKREIPVAIKTLKGGHMDRQRRDFLREASIMGQFDHPNIIRLEGVVTKRSFPAIGVEAFCPSFLRAGFLNSIQAPHPVPGGGSLPPRIPAGRPVMIVVEYMENGSLDSFLRKHDGHFTVIQLVGMLRGIASGMKYLSDMGYVHRDLAARNILVNSNLVCKVSDFGLSRVLEDDPEAAYTTTGGKIPIRWTAPEAIAYRKFSSASDAWSYGIVMWEVMSYGERPYWEMSNQDVILSIEEGYRLPAPMGCPASLHQLMLHCWQKERNHRPKFTDIVSFLDKLIRNPSALHTLVEDILVMPESPGEVPEYPLFVTVGDWLDSIKMGQYKNNFVAAGFTTFDLISRMSIDDIRRIGVILIGHQRRIVSSIQTLRLHMMHIQEKGFHV
With B8 the Signal to Noise ratio with BRB1 Peptide (TR-FRET kinase assay; kinase 0.5 nM) was 5.4.

B9: EphB1 (protein)
chain: SRKRAYSKEAVYSDKLQHYSTGRGSPGMKIYIDPFTYEDPNEAVREFAKEIDVSFVKIEEVIGAGEFGEVYKGRLKLPGKREIYVAIKTLKAGYSEKQRRDFLSEASIMGQFDHPNIIRLEGVVTKSRPVMIITEFMENGALDSFLRQNDGQFTVIQLVGMLRGIAAGMKYLAEMNYVHRDLAARNILVNSNLVCKVSDFGLSRYLQDDTSDPTYTSSLGGKIPVRWTAPEAIAYRKFTSASDVWSYGIVMWEVMSFGERPYWDMSNQDVINAIEQDYRLPPPMDCPAALHQLMLDCWQKDRNSRPRFAEIVNTLDKMIRNPASLKTVATITAVPSQPLLDRSIPDFTAFTTVDDWLSAIKMVQYRDSFLTAGFTSLQLVTQMTSEDLLRIGITLAGHQKKILNSIHSMRVQISQSPTAMA
For B9, the Signal to Noise ratio with BRB1 Peptide (TR-FRET kinase assay; kinase 0.5 nM) was 29.9.

B10: EphB3 (protein)
chain: CLRKQRHGSDSEYTEKLQQYIAPGMKVYIDPFTYEDPNEAVREFAKEIDVSCVKIEEVIGAGEFGEVCRGRLKQPGRREVFVAIKTLKVGYTERQRRDFLSEASIMGQFDHPNIIRLEGVVTKSRPVMILTEFMENCALDSFLRLNDGQFTVIQLVGMLRGIAAGMKYLSEMNYVHRDLAARNILVNSNLVCKVSDFGLSRFLEDDPSDPTYTSSLGGKIPIRWTAPEAIAYRKFTSASDVWSYGIVMWEVMSYGERPYWDMSNQDVINAVEQDYRLPPPMDCPTALHQLMLDCWVRDRNLRPKFSQIVNTLDKLIRNAASLKVIASAQSGMSQPLLDRTVPDYTTFTTVGDWLDAIKMGRYKESFVSAGFASFDLVAQMTAEDLLRIGVTLAGHQKKILSSIQDMRLQMNQTLPVQV
B10 was tested, and the Signal to Noise ratio with BRB1 Peptide (TR-FRET kinase assay; kinase 0.1 nM) was 24.7.

B11: EphA1 (protein)
chain: RSRRAQRQRQQRQRDRATDVDREDKLWLKPYVDLQAYEDPAQGALDFTRELDPAWLMVDTVIGEGEFGEVYRGTLRLPSQDCKTVAIKTLKDTSPGGQWWNFLREATIMGQFSHPHILHLEGVVTKRKPIMIITEFMENGALDAFLREREDQLVPGQLVAMLQGIASGMNYLSNHNYVHRDLAARNILVNQNLCCKVSDFGLTRLLDDFDGTYETQGGKIPIRWTAPEAIAHRIFTTASDVWSFGIVMWEVLSFGDKPYGEMSNQEVMKSIEDGYRLPPPVDCPAPLYELMKNCWAYDRARRPHFQKLQAHLEQLLANPHSLRTIANFDPRMTLRLPSLSGSDGIPYRTVSEWLESIRMKRYILHFHSAGLDTMECVLELTAEDLTQMGITLPGHQKRILCSIQGFKD
Work on B11 yielded a Signal to Noise ratio with BRB1 Peptide (TR-FRET kinase assay; kinase 0.5 nM) of 10.8.
